B1: YFP-agnoprotein (other)
chain: MVLRQLSRKASVKVSKTWSGTKKRAQRILIFLLEFLLDFCTGEDSVDGKKRQRHSGLTEQTYSALPEPKAT
notes: also called GFP-Agnoprotein; fusion agnoprotein
B2: in vitro synthesized [35S]-labeled agnoprotein (other)
chain: B1 chain
notes: also called in vitro translated [35S]-labeled agnoprotein

Experiments:
GST alone [1] = molecular target: T1, GST alone (UniProt P08515 1-218 = GST); assay: GST pull-down from NIH 3T3 cell extract, Western blot with anti-agnoprotein antibody
[2] = molecular target: p53 in NIH 3T3 cell protein extract (mouse (endogenous in mouse fibroblast …, UniProt P02340 1-390)); assay: co-immunoprecipitation with anti-p53 antibody pAb 421, Western blot with rabbit anti-Agno
Chain of p53 in NIH 3T3 cell protein extract (mouse (P02340 whole entry): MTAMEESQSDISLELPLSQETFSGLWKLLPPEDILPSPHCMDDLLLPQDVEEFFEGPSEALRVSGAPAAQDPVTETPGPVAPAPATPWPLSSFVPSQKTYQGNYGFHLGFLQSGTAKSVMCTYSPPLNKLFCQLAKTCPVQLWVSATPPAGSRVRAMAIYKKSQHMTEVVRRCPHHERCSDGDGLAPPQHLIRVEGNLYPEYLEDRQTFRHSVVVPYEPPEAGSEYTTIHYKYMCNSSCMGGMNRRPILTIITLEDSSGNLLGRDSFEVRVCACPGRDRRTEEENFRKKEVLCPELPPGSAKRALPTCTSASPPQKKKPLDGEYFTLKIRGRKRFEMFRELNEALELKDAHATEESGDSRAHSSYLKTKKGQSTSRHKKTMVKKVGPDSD

GST alone [3] = molecular target: T1, GST alone; assay: GST pull-down, autoradiography

T1 sequence (P08515 whole entry): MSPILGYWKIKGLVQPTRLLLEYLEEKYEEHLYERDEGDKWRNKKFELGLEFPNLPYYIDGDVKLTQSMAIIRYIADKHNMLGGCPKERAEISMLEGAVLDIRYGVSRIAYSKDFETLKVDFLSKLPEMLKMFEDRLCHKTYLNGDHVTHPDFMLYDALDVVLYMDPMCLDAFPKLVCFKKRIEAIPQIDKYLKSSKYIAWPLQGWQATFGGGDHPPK

| Binder | binding result (GST alone [1]) | binding result [2] | binding result (GST alone [3]) |
| --- | --- | --- | --- |
| B1 | no binding | binds | – |
| B2 | – | – | no binding |
